In patent publication US20260275312, “CRISPR NUCLEASE POLYPEPTIDES AND GENE EDITING SYSTEMS COMPRISING SUCH” (ARBOR BIOTECHNOLOGIES, INC., published 2026):
Where a chain is given by its changes, count along the chain named.

What was measured:
Nuclease H L54R = target: T1, Nuclease H L54R (synthetic construct, L54R); test: cell_activity; HEK293T; PAM AAC; settings: tags: N-term SV40 NLS, XTEN linker + C-term nucleoplasmin NLS
T1 chain: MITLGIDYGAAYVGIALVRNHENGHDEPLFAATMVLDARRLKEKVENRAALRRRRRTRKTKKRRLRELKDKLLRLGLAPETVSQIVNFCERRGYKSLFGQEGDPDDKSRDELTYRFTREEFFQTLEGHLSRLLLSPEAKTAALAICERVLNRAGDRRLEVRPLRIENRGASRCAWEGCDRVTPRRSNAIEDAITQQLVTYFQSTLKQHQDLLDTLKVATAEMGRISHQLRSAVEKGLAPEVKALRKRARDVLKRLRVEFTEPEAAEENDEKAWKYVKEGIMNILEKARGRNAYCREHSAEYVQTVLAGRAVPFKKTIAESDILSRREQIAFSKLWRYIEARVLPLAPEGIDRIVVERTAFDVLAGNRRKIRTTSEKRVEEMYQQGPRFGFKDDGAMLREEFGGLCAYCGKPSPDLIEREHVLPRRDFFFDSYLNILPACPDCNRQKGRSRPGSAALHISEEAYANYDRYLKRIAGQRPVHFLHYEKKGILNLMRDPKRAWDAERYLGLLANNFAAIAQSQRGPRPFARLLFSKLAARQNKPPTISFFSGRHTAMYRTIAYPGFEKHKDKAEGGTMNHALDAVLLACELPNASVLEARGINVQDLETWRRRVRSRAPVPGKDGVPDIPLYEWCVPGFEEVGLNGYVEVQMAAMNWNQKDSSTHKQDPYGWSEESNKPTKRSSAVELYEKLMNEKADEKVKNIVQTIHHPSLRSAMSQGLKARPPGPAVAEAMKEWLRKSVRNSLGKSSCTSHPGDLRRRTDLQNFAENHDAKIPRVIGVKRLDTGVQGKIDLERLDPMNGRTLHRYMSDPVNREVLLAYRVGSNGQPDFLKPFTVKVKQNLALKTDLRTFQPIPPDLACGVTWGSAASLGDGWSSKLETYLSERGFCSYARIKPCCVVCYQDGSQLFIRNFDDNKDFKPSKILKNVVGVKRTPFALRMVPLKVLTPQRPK
Description: (§1) HEK293T cells were transfected with plasmids expressing the Nuclease H polypeptides and the gRNAs provided herein following the methods provided in Example 1 above. Gene editing efficiencies were determined by NGS following the methods also provided in Example 1. The NGS results were analyzed also following the methods provided in Example 1 above.
(§2) Indel ratios, referring to the percentage of NGS reads comprising indels, were calculated for the reference and for each variant. The indel ratios used for fold change calculations were the average of two technical replicates. To then calculate fold change in indel ratios, the indel ratio for each variant was divided by the indel ratio for the reference. […] Numbering is relative to the reference nuclease of SEQ ID NO: 64 (i.e., without an NLS).

Nuclease H L323R = target: T2, Nuclease H L323R (synthetic construct, L323R); test: cell_activity; HEK293T; PAM AAC; settings: tags: N-term SV40 NLS, XTEN linker + C-term nucleoplasmin NLS
T2 chain: T1 chain with R54L, L323R
Description: as §1, §2

B1: H AAVS1-T5 RNA guide ; AAVS1-T5 target (H) (ssRNA ; dsDNA)
RNA: GGCUAUAAUCCAUGCUGACCGUUUCAAUCAACCUGAUCUCUCUGCUUGCGCUGCAGGCUUCAUAAGAUCAGUAGGUUGAAAAGAGCAUCCGUCCGACAUGCACUCCGGGAUGGGGCAGUCCCGGCUCUUGCGGUUCCCGAUGCAGUUAUGUGUCCGCGGAACACGGUGUCGGACACGUCGCAAGACAGGAUGUGAGCCCAUUAUCCACAUUAGGAUCAAUGUACGCAUGAGCAGUCCGCAAUGCCGGGGACGCU
DNA 1: GGCTATAATCCATGCTGACC
DNA 2: GGTCAGCATGGATTATAGCC
Nuclease H L54R
  fold change in indel ratio vs reference: 16.6 fold indel vs reference
Nuclease H L323R
  fold change in indel ratio vs reference: 5.91 fold indel vs reference
